{
  "source": "patent US20030087328A1",
  "molecules": {"B1": {"name": "Recombinant v-Abl kinase (protein)", "chain": "YITPVNSLEKHSWYHGPVSRNAAEYLLSSGINGSFLVRESESSPGQRSISLRYEGRVYHYRINTASDGKLYVSSESRFNTLAELVHHHSTVADGLITTLHYPAPKRNKPTIYGVSPNYDKWEMERTDITMKHKLGGGQYGEVYEGVWKKYSLTVAVKTLKEDTMEVEEFLKEAAVMKEIKHPNLVQLLGVCTREPPFYIITEFMTYGNLLDYLRECNRQEVSAVVLLYMATQISSAMEYLEKKNFIHRDLAARNCLVGENHLVKVADFGLSRLMTGDTYTAHAGAKFPIKWTAPESLAYNKFSIKSDVWAFGVLLWEIATYGMSPYPGIDLSQVYELLEKDYRMERPEGCPEKVYELMRACWQWNPSDRPSFAEIHQAFETMFQESSISDEVEKELGKRGTRG"}},
  "key": {"[1]": {"system": "T1, Src-1 optical probe (GEEEIYGEIEK, SEQ. ID. NO: 3)", "T1 sequence": "GEEEIYGEIEK"}, "[2]": {"system": "T2, Src-2 optical probe (GEEEIYGVIEK, SEQ. ID. NO: 29), non-phosphorylated", "T2 sequence": "GEEEIYGVIEK"}, "protein kinase A": {"target": "protein kinase A", "assay": "cell-based or functional assay"}, "[3]": {"system": "T3, phosphorylated Src-2-specific substrate optical probe (SEQ. ID. NO: 29)", "T3 sequence": "RRFHSRRRR"}, "[4]": {"system": "T4, phosphorylated abl-specific substrate optical probe (SEQ. I.D. No. 4)", "T4 sequence": "AEAIYAAPLK"}, "[5]": {"target": "T5, abl-specific substrate optical probe (AEAIYAAPL, SEQ. ID. NO: 4), non-phosphorylated", "T5 chain": "AEAIYAAPLK"}},
  "data": [
    {"molecule": "Src kinase (Upstate Biotechnology)", "values": [
      {"measurement": "apparent Km (fluorescence measurements after protease incubation)", "setting": "[1]", "value": "11 µM and 19 µM respectively"},
      {"measurement": "apparent Km (fluorescence measurements after protease incubation)", "setting": "[2]", "value": "11 µM and 19 µM respectively"}
    ]},
    {"molecule": "PKI (substrate competitive inhibitor of protein kinase A) (peptide)", "values": [
      {"measurement": "460/530 Emission Ratio, Kinase + the inhibitor PKI (2.8 µM) (negative control 11.67, positive control 2.11) (460/530 emission ratio)", "setting": "protein kinase A", "value": 11.7}
    ]},
    {"molecule": "protein tyrosine phosphatase-B (PTP-B) agarose (Upstate Biotechnology)", "values": [
      {"measurement": "Kcat/Km (dephosphorylation)", "setting": "[3]", "value": "nearly 10^8 M^-1sec^-1"},
      {"measurement": "apparent Km (Michaelis-Menten plot, dephosphorylation)", "setting": "[3]", "value": "the apparent Km for the Src-2optical probe is 1.3 µM"},
      {"measurement": "kcat (dephosphorylation)", "setting": "[3]", "value": "the kcat is 79 sec^-1"},
      {"measurement": "relative rate of dephosphorylation", "setting": "[3]", "value": "the Src-2 substrate is more readily de-phosphorylated than the abl substrate"},
      {"measurement": "relative rate of dephosphorylation", "setting": "[4]", "value": "the Src-2 substrate is more readily de-phosphorylated than the abl substrate"}
    ]},
    {"molecule": "B1", "values": [
      {"measurement": "apparent Km for the substrate (kinetics of phosphorylation, FRET/chymotrypsin read-out)", "setting": "[5]", "value": "apparent Km for the substrate of 40 µM"},
      {"measurement": "turnover (kcat) of the optical probe", "setting": "[5]", "value": "The turnover of the optical probe by v-Abl was 9.5 sec^-1"}
    ]}
  ]
}
